The supplement of paper PMC9112550, “Optimization of the antimicrobial peptide Bac7 by deep mutational scanning” (BMC Biology, 2022)

system: Escherichia coli TOP10; assay: shrunken log2 fold change of peptide-encoding DNA abundance (4.5 h post-induction vs induction); higher = less antimicrobial activity (less host growth inhibition); settings: time post-induction: 4.5 h; library: site-saturation at positions 5, 18, 19, 20
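Also: peptides expressed intracellularly from a pBAD plasmid library in pooled LB shake-flask culture, induced with 0.3% L-arabinose, DNA abundance read by NGS, three biological replicates, DESeq2 with apeglm shrinkage.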

Sequence | shrunken log2 fold change
RRIRGRPPRLPRPRPRPWARPRP | 0.241
RRIRQRPPRLPRPRPRPFLRPRP | -0.0193
RRIRPRPPRLPRPRPRPGSSPRP | -0.0653
RRIRCRPPRLPRPRPRPPQDPRP | 1.08
RRIRVRPPRLPRPRPRPADTPRP | -0.32
RRIRNRPPRLPRPRPRPHVQPRP | -0.0883
RRIRQRPPRLPRPRPRPYVWPRP | -0.00378
RRIRLRPPRLPRPRPRPHEDPRP | -0.682
RRIRGRPPRLPRPRPRPYIWPRP | -0.107
RRIRPRPPRLPRPRPRPVDGPRP | 0.0909
RRIRFRPPRLPRPRPRPGWAPRP | 0.187
RRIRCRPPRLPRPRPRPCDLPRP | 3.04
RRIRCRPPRLPRPRPRPVRIPRP | -0.108
RRIRPRPPRLPRPRPRPKMHPRP | 0.153
RRIRERPPRLPRPRPRPWFVPRP | -0.463
RRIRDRPPRLPRPRPRPIGEPRP | -0.00228
RRIRVRPPRLPRPRPRPYIAPRP | -0.608
RRIRARPPRLPRPRPRPPEPPRP | 0.686
RRIRVRPPRLPRPRPRPGCEPRP | 2.45
RRIRDRPPRLPRPRPRPMPEPRP | 0.0845
RRIRARPPRLPRPRPRPAWAPRP | 0.48
RRIRGRPPRLPRPRPRPRSGPRP | 0.83
RRIRCRPPRLPRPRPRPVIQPRP | -0.468
RRIRLRPPRLPRPRPRPDGKPRP | -0.0351
RRIRLRPPRLPRPRPRPDRHPRP | -0.279

Sequence | shrunken log2 fold change
RRIRDRPPRLPRPRPRPTLCPRP | 0.33
RRIRARPPRLPRPRPRPMSIPRP | -0.118
RRIRVRPPRLPRPRPRPYDIPRP | -0.279
RRIRPRPPRLPRPRPRPKHEPRP | 0.0756
RRIRERPPRLPRPRPRPVHEPRP | -0.00127
RRIRLRPPRLPRPRPRPYNTPRP | -0.806
RRIRYRPPRLPRPRPRPKPQPRP | -0.115
RRIRHRPPRLPRPRPRPAKHPRP | -0.0767
RRIRGRPPRLPRPRPRPPERPRP | 1.02
RRIRFRPPRLPRPRPRPFADPRP | -0.0172
RRIRWRPPRLPRPRPRPSQVPRP | -0.0348
RRIRDRPPRLPRPRPRPDRHPRP | -0.278
RRIRYRPPRLPRPRPRPFFDPRP | 1.09
RRIRMRPPRLPRPRPRPYQAPRP | 2.21
RRIRYRPPRLPRPRPRPLRYPRP | -0.426
RRIRPRPPRLPRPRPRPHVDPRP | -0.029
RRIRIRPPRLPRPRPRPYELPRP | -0.0687
RRIRIRPPRLPRPRPRPFPTPRP | 0.0232
RRIRIRPPRLPRPRPRPTCYPRP | -0.266
RRIRDRPPRLPRPRPRPTSSPRP | 0.058
RRIRNRPPRLPRPRPRPYYEPRP | -0.793
RRIRGRPPRLPRPRPRPCMSPRP | 0.151
RRIRHRPPRLPRPRPRPGKSPRP | -0.0128
RRIRLRPPRLPRPRPRPDRAPRP | 0.0122
RRIRDRPPRLPRPRPRPLWAPRP | 0.0876

Sequence | shrunken log2 fold change
RRIRWRPPRLPRPRPRPIYQPRP | -0.288
RRIRIRPPRLPRPRPRPRSYPRP | -0.381
RRIRARPPRLPRPRPRPCDRPRP | -0.00133
RRIRERPPRLPRPRPRPNRWPRP | 0.0283
RRIRHRPPRLPRPRPRPDIMPRP | -0.261
RRIRLRPPRLPRPRPRPKQHPRP | -0.103
RRIRLRPPRLPRPRPRPWLVPRP | -0.0391
RRIRKRPPRLPRPRPRPNYMPRP | -0.117
RRIRVRPPRLPRPRPRPLVAPRP | 0.196
RRIRHRPPRLPRPRPRPCQTPRP | -0.0148
RRIRYRPPRLPRPRPRPPDCPRP | -0.00396
RRIRMRPPRLPRPRPRPLWVPRP | 0.0224
RRIRWRPPRLPRPRPRPAKGPRP | -0.0312
RRIRNRPPRLPRPRPRPSYQPRP | -0.75
RRIRSRPPRLPRPRPRPHTWPRP | -0.0472
RRIRVRPPRLPRPRPRPWLRPRP | -0.171
RRIRDRPPRLPRPRPRPWPEPRP | -0.0683
RRIRQRPPRLPRPRPRPTFCPRP | -0.0744
RRIRLRPPRLPRPRPRPGTLPRP | 0.0174
RRIRHRPPRLPRPRPRPLAWPRP | 0.198
RRIRNRPPRLPRPRPRPGVRPRP | 0.212
RRIRCRPPRLPRPRPRPWELPRP | 0.268
RRIRARPPRLPRPRPRPVYFPRP | -0.135
RRIRCRPPRLPRPRPRPTIMPRP | -0.562
RRIRVRPPRLPRPRPRPYRGPRP | -0.402

Sequence | shrunken log2 fold change
RRIRDRPPRLPRPRPRPLLGPRP | 0.356
RRIRPRPPRLPRPRPRPWRNPRP | 0.0809
RRIRGRPPRLPRPRPRPDMRPRP | 1.36
RRIRVRPPRLPRPRPRPLKEPRP | 0.0279
RRIRVRPPRLPRPRPRPIDWPRP | 0.224
RRIRERPPRLPRPRPRPMKNPRP | -0.22
RRIRRRPPRLPRPRPRPRNPPRP | 0.345
RRIRGRPPRLPRPRPRPRVWPRP | 0.547
RRIRRRPPRLPRPRPRPNMNPRP | -0.463
RRIRGRPPRLPRPRPRPFQHPRP | -0.0674
RRIRLRPPRLPRPRPRPSKYPRP | -0.578
RRIRHRPPRLPRPRPRPVICPRP | -0.0717
RRIRERPPRLPRPRPRPGCEPRP | -0.00695
RRIRRRPPRLPRPRPRPRMKPRP | 0.309
RRIRFRPPRLPRPRPRPQWKPRP | -0.0239
RRIRCRPPRLPRPRPRPCIKPRP | -0.426
RRIRNRPPRLPRPRPRPASPPRP | 0.154
RRIRPRPPRLPRPRPRPRCLPRP | -0.0858
RRIRDRPPRLPRPRPRPENYPRP | 0.0528
RRIRSRPPRLPRPRPRPVKSPRP | -0.127
RRIRSRPPRLPRPRPRPAMHPRP | -0.0199
RRIRPRPPRLPRPRPRPFFYPRP | -0.214
RRIRARPPRLPRPRPRPKFPPRP | 2.15
RRIRLRPPRLPRPRPRPKYKPRP | -0.486
RRIRIRPPRLPRPRPRPEGIPRP | -0.0831

Sequence | shrunken log2 fold change
RRIRWRPPRLPRPRPRPEHTPRP | 0.489
RRIRARPPRLPRPRPRPLAPPRP | 0.619
RRIRDRPPRLPRPRPRPSWFPRP | -0.192
RRIRVRPPRLPRPRPRPVQVPRP | -0.269
RRIRVRPPRLPRPRPRPHGDPRP | 0.00703
RRIRFRPPRLPRPRPRPKIHPRP | -0.557
RRIRQRPPRLPRPRPRPYTYPRP | -0.157
RRIRGRPPRLPRPRPRPYGPPRP | 0.0138
RRIRLRPPRLPRPRPRPSDYPRP | -0.106
RRIRARPPRLPRPRPRPFFFPRP | 0.419
RRIRPRPPRLPRPRPRPQGFPRP | -0.0446
RRIRCRPPRLPRPRPRPRKCPRP | 0.0179
RRIRDRPPRLPRPRPRPHLQPRP | 0.157
RRIRGRPPRLPRPRPRPSSIPRP | 0.0764
RRIRERPPRLPRPRPRPFIRPRP | -0.854
RRIRPRPPRLPRPRPRPFEHPRP | 0.0626
RRIRCRPPRLPRPRPRPIMWPRP | -0.123
RRIRWRPPRLPRPRPRPPCYPRP | -0.436
RRIRVRPPRLPRPRPRPFWIPRP | -0.182
RRIRRRPPRLPRPRPRPEVYPRP | 0.0769
RRIRDRPPRLPRPRPRPPKWPRP | 0.27
RRIRLRPPRLPRPRPRPFNDPRP | 0.0825
RRIRNRPPRLPRPRPRPRWCPRP | 0.169
RRIRSRPPRLPRPRPRPQFKPRP | -0.239
RRIRLRPPRLPRPRPRPIANPRP | -0.00904

Sequence | shrunken log2 fold change
RRIRWRPPRLPRPRPRPNSTPRP | -0.326
RRIRHRPPRLPRPRPRPWPWPRP | 0.199
RRIRERPPRLPRPRPRPDQAPRP | -0.00195
RRIRFRPPRLPRPRPRPSYWPRP | -0.519
RRIRQRPPRLPRPRPRPDHQPRP | -0.126
RRIRHRPPRLPRPRPRPPDYPRP | 4.26
RRIRRRPPRLPRPRPRPCWTPRP | -0.13
RRIRLRPPRLPRPRPRPLGYPRP | -1.79
RRIRHRPPRLPRPRPRPGGEPRP | 0.183
RRIRPRPPRLPRPRPRPFLFPRP | -0.204
RRIRYRPPRLPRPRPRPSMRPRP | -0.634
RRIRMRPPRLPRPRPRPVKTPRP | 0.0113
RRIRKRPPRLPRPRPRPGFHPRP | 0.206
RRIRTRPPRLPRPRPRPIVAPRP | 2.95
RRIRLRPPRLPRPRPRPDKCPRP | -0.0114
RRIRNRPPRLPRPRPRPQMDPRP | 0.0304
RRIRYRPPRLPRPRPRPGDIPRP | -0.0107
RRIRIRPPRLPRPRPRPCAVPRP | -0.431
RRIRYRPPRLPRPRPRPGVRPRP | 0.0103
RRIRVRPPRLPRPRPRPWLEPRP | 0.147
RRIRPRPPRLPRPRPRPAHFPRP | 0.111
RRIRFRPPRLPRPRPRPRMYPRP | -0.151
RRIRKRPPRLPRPRPRPELLPRP | 0.394
RRIRWRPPRLPRPRPRPHALPRP | -0.118
RRIRKRPPRLPRPRPRPPHRPRP | 0.501
